{"source": "patent US20230102344A1", "key": {"[1]": {"target": "human TCRvβ (BIM0444) (human)", "sequence (A0A0K0K1A5 22-114)": "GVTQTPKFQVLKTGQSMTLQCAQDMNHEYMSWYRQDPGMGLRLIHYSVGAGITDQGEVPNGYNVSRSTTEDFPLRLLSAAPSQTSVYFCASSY", "assay": "SPR (Biacore): antibody captured via anti-human Fc on CM5, BIM0444 as analyte, 1:1 fit"}, "[2]": {"target": "cynomolgus TCRvβ (BJM0847) (cynomolgus)", "assay": "SPR (Biacore): antibody captured on Protein L chip, BJM0847 as analyte, 1:1 fit"}, "[3]": {"target": "cynomolgus TCRvβ (BJM0847) (cynomolgus)", "assay": "SPR (Biacore): antibody amine-coupled to CM5, BJM0847 as analyte, 1:1 fit"}}}
{"binder": "BJM0502 (scFv, part only; not given: Fc scaffold making it bivalent, part only) scFv, part: QVQLVQSGAEVKKPGSSVKVSCKASGHDFHLWYIHWVRQAPGQGLEWMGRVSAGSGNVKYNEKFKGRVTITADTSTSTAYMELSSLRSEDTAVYYCAGSYYSYDVLDYWGQGTTVTVSSGGGGSGGGGSGGGGSGGGGSDIQMTQSPSFLSASVGDRVTITCKASQNVDNKVAWHQQKPGKAPKALIYSSSHRYKGVPSRFSGSGSGTEFTLTISSLQPEDFATYFCQQFKSYPLTFGQGTKLEIK", "values": [{"measurement": "Kd", "setting": "[1]", "value": 20, "unit": "nM"}, {"measurement": "Kd", "setting": "[2]", "value": 387, "unit": "nM"}]}
{"binder": "A-H.23 (scFv, not shown: a dimerising Fc or GST) scFv: QVQLVQSGAEVKKPGSSVKVSCKASGHDFRLTYIHWVRQAPGQGLEWMGRISAGSGNVKYNEKFKGRVTITADTSTSTAYMELSSLRSEDTAVYYCAGSYYSYDVLDYWGQGTTVTVSSGGGGSGGGGSGGGGSGGGGSDIQMTQSPSFLSASVGDRVTITCKASQNVADRVAWYQQKPGKAPKALIYSSSHRYKGVPSRFSGSGSGTEFTLTISSLQPEDFATYFCQQFKSYPLTFGQGTKLEIK", "values": [{"measurement": "Kd", "setting": "[1]", "value": 1.7, "unit": "nM"}]}
{"binder": "A-H.68 (scFv, not shown: a dimerising Fc or GST) scFv: QVQLVQSGAEVKKPGSSVKVSCKASGHDFRLTYIHWVRQAPGQGLEWMGRISAGSGNVKYNEKFKGRVTITADTSTSTAYMELSSLRSEDTAVYYCAVSYYSYDVLDYWGQGTTVTVSSGGGGSGGGGSGGGGSGGGGSDIQMTQSPSFLSASVGDRVTITCKASQNVADRVAWYQQKPGKAPKALIYSSSHRYKGVPSRFSGSGSGTEFTLTISSLQPEDFATYFCQQFKSYPLTFGQGTKLEIK", "values": [{"measurement": "Kd", "setting": "[1]", "value": 0.829, "unit": "nM"}, {"measurement": "Kd", "setting": "[3]", "value": 59, "unit": "nM"}]}
{"binder": "A-H.13 (scFv) scFv: QVQLVQSGAEVKKPGSSVKVSCKASGTDFKLTYIHWVRQAPGQGLEWMGRIFPGSGNVKYNEKFKGRVTITADTSTSTAYMELSSLRSEDTAVYYCAGSYYSYDVLDYWGQGTTVTVSSGGGGSGGGGSGGGGSGGGGSDIQMTQSPSFLSASVGDRVTITCKASQNVDNRVAWYQQKPGKAPKALIYSSSHRYKGVPSRFSGSGSGTEFTLTISSLQPEDFATYFCQQFKSYPLTFGQGTKLEIK", "values": [{"measurement": "Kd", "setting": "[1]", "value": 3.8, "unit": "nM"}, {"measurement": "Kd", "setting": "[3]", "value": 173, "unit": "nM"}]}
{"binder": "A-H.67 (scFv) scFv: QVQLVQSGAEVKKPGSSVKVSCKASGTDFKLTYIHWVRQAPGQGLEWMGRIFPGSGNVKYNEKFKGRVTITADTSTSTAYMELSSLRSEDTAVYYCAVSYYSYDVLDYWGQGTTVTVSSGGGGSGGGGSGGGGSGGGGSDIQMTQSPSFLSASVGDRVTITCKASQNVDNRVAWYQQKPGKAPKALIYSSSHRYKGVPSRFSGSGSGTEFTLTISSLQPEDFATYFCQQFKSYPLTFGQGTKLEIK", "values": [{"measurement": "Kd", "setting": "[1]", "value": 20, "unit": "nM"}]}
{"binder": "BJM0897 (antibody, V domains shown) VH: QVQLVQSGAEVKKPGSSVKVSCKASGTDFKLTYIHWVRQAPGQGLEWMGRIFPGSGNVKYNEKFKGRVTITADTSTSTAYMELSSLRSEDTAVYYCAGSYYSYDVLDYWGQGTTVTVSS VL: DIQMTQSPSFLSASVGDRVTITCKASQNVDNRVAWYQQKPGKAPKALIYSSSHRYKGVPSRFSGSGSGTEFTLTISSLQPEDFATYFCQQFKSYPLTFGQGTKLEIK", "values": [{"measurement": "Kd", "setting": "[1]", "value": 7.2, "unit": "nM"}, {"measurement": "Kd", "setting": "[2]", "value": 69, "unit": "nM"}]}
{"binder": "BJM0899 (antibody, V domains shown) VH: QVQLVQSGAEVKKPGSSVKVSCKASGHDFRLTYIHWVRQAPGQGLEWMGRISAGSGNVKYNEKFKGRVTITADTSTSTAYMELSSLRSEDTAVYYCAGSYYSYDVLDYWGQGTTVTVSS VL: DIQMTQSPSFLSASVGDRVTITCKASQNVADRVAWYQQKPGKAPKALIYSSSHRYKGVPSRFSGSGSGTEFTLTISSLQPEDFATYFCQQFKSYPLTFGQGTKLEIK", "values": [{"measurement": "Kd", "setting": "[1]", "value": 3.7, "unit": "nM"}, {"measurement": "Kd", "setting": "[2]", "value": 130, "unit": "nM"}]}
{"binder": "BJM0912 (antibody, V domains shown) VH: QVQLVQSGAEVKKPGSSVKVSCKASGHDFHLWYIHWVRQAPGQGLEWMGRVSAGSGNVKYNEKFKGRVTITADTSTSTAYMELSSLRSEDTAVYYCAGSYYSYDVLDYWGQGTTVTVSS VL: DIQMTQSPSFLSASVGDRVTITCKASQNVDNKVAWHQQKPGKAPKALIYSSSHRYKGVPSRFSGSGSGTEFTLTISSLQPEDFATYFCQQFKSYPLTFGQGTKLEIK", "values": [{"measurement": "Kd", "setting": "[1]", "value": 28, "unit": "nM"}, {"measurement": "Kd", "setting": "[2]", "value": 326, "unit": "nM"}]}
{"binder": "A-H.24 (scFv) scFv: QVQLVQSGAEVKKPGSSVKVSCKASGHDFHLWYIHWVRQAPGQGLEWMGRVSAGSGNVKYNEKFKGRVTITADTSTSTAYMELSSLRSEDTAVYYCAGSYYSYDVLDYWGQGTTVTVSSGGGGSGGGGSGGGGSGGGGSDIQMTQSPSFLSASVGDRVTITCKASQNVDNKVAWHQQKPGKAPKALIYSSSHRYKGVPSRFSGSGSGTEFTLTISSLQPEDFATYFCQQFKSYPLTFGQGTKLEIK", "values": [{"measurement": "Kd", "setting": "[1]", "value": 12, "unit": "nM"}]}
{"binder": "A-H.57 (scFv) scFv: QVQLVQSGAEVKKPGSSVKVSCKASGHDFRLTYIHWVRQAPGQGLEWMGRVSAGSGNTKYNEKFKGRVTITADTSTSTAYMELSSLRSEDTAVYYCAVSYYSYDVLDYWGQGTTVTVSSGGGGSGGGGSGGGGSGGGGSDIQMTQSPSFLSASVGDRVTITCKASQNVGDRVVWHQQKPGKAPKALIYSSSHRYKGVPSRFSGSGSGTEFTLTISSLQPEDFATYFCQQFKSYPLTFGQGTKLEIK", "values": [{"measurement": "Kd", "setting": "[1]", "value": 0.469, "unit": "nM"}, {"measurement": "Kd", "setting": "[2]", "value": 0.762, "unit": "nM"}]}
{"binder": "A-H.58 (scFv) scFv: QVQLVQSGAEVKKPGSSVKVSCKASGHDFRLTYIHWVRQAPGQGLEWMGRVSAGSGNVKYNEKFKGRVTITADTSTSTAYMELSSLRSEDTAVYYCAVSYYSYDVLDYWGQGTTVTVSSGGGGSGGGGSGGGGSGGGGSDIQMTQSPSFLSASVGDRVTITCKASQNVGNRVVWHQQKPGKAPKALIYSSSHRYKGVPSRFSGSGSGTEFTLTISSLQPEDFATYFCQQFKSYPLTFGQGTKLEIK", "values": [{"measurement": "Kd", "setting": "[1]", "value": 0.491, "unit": "nM"}, {"measurement": "Kd", "setting": "[2]", "value": 0.158, "unit": "nM"}]}
{"binder": "A-H.59 (scFv) scFv: QVQLVQSGAEVKKPGSSVKVSCKASGHDFRLTYIHWVRQAPGQGLEWMGRIYAGSGNVKYNEKFKGRVTITADTSTSTAYMELSSLRSEDTAVYYCAVSYYSYDVLDYWGQGTTVTVSSGGGGSGGGGSGGGGSGGGGSDIQMTQSPSFLSASVGDRVTITCKASQNVADRVVWHQQKPGKAPKALIYSSSHRYKGVPSRFSGSGSGTEFTLTISSLQPEDFATYFCQQFKSYPLTFGQGTKLEIK", "values": [{"measurement": "Kd", "setting": "[1]", "value": 0.323, "unit": "nM"}, {"measurement": "Kd", "setting": "[2]", "value": 5, "unit": "nM"}]}
{"binder": "A-H.60 (scFv) scFv: QVQLVQSGAEVKKPGSSVKVSCKASGHDFKLTYIHWVRQAPGQGLEWMGRVSAGSGNTKYNEKFKGRVTITADTSTSTAYMELSSLRSEDTAVYYCAVSYYSYDVLDYWGQGTTVTVSSGGGGSGGGGSGGGGSGGGGSDIQMTQSPSFLSASVGDRVTITCKASQNVGDRVAWHQQKPGKAPKALIYSSSHRYKGVPSRFSGSGSGTEFTLTISSLQPEDFATYFCQQFKSYPLTFGQGTKLEIK", "values": [{"measurement": "Kd", "setting": "[1]", "value": 0.445, "unit": "nM"}, {"measurement": "Kd", "setting": "[2]", "value": 1.6, "unit": "nM"}]}
{"binder": "A-H.61 (scFv) scFv: QVQLVQSGAEVKKPGSSVKVSCKASGHDFKLTYIHWVRQAPGQGLEWMGRVSAGSGNTKYNEKFKGRVTITADTSTSTAYMELSSLRSEDTAVYYCAVSYYSYDVLDYWGQGTTVTVSSGGGGSGGGGSGGGGSGGGGSDIQMTQSPSFLSASVGDRVTITCKASQNVDNRVAWHQQKPGKAPKALIYSSSHRYKGVPSRFSGSGSGTEFTLTISSLQPEDFATYFCQQFKSYPLTFGQGTKLEIK", "values": [{"measurement": "Kd", "setting": "[1]", "value": 0.349, "unit": "nM"}, {"measurement": "Kd", "setting": "[2]", "value": 0.607, "unit": "nM"}]}
{"binder": "A-H.62 (scFv) scFv: QVQLVQSGAEVKKPGSSVKVSCKASGHDFRLTYIHWVRQAPGQGLEWMGRVSAGSGNVKYNEKFKGRVTITADTSTSTAYMELSSLRSEDTAVYYCAVSYYSYDVLDYWGQGTTVTVSSGGGGSGGGGSGGGGSGGGGSDIQMTQSPSFLSASVGDRVTITCKASQNVADRVVWHQQKPGKAPKALIYSSSHRYKGVPSRFSGSGSGTEFTLTISSLQPEDFATYFCQQFKSYPLTFGQGTKLEIK", "values": [{"measurement": "Kd", "setting": "[1]", "value": 0.447, "unit": "nM"}, {"measurement": "Kd", "setting": "[2]", "value": 0.766, "unit": "nM"}]}
{"binder": "A-H.63 (scFv) scFv: QVQLVQSGAEVKKPGSSVKVSCKASGHDFRLTYIHWVRQAPGQGLEWMGRVYAGSGNTKYNEKFKGRVTITADTSTSTAYMELSSLRSEDTAVYYCAVSYYSYDVLDYWGQGTTVTVSSGGGGSGGGGSGGGGSGGGGSDIQMTQSPSFLSASVGDRVTITCKASQNVEDRVVWHQQKPGKAPKALIYSSSHRYKGVPSRFSGSGSGTEFTLTISSLQPEDFATYFCQQFKSYPLTFGQGTKLEIK", "values": [{"measurement": "Kd", "setting": "[1]", "value": 0.274, "unit": "nM"}, {"measurement": "Kd", "setting": "[2]", "value": 5.8, "unit": "nM"}]}
{"binder": "A-H.64 (scFv) scFv: QVQLVQSGAEVKKPGSSVKVSCKASGHDFKLTYIHWVRQAPGQGLEWMGRVSAGSGNTKYNEKFKGRVTITADTSTSTAYMELSSLRSEDTAVYYCAVSYYSYDVLDYWGQGTTVTVSSGGGGSGGGGSGGGGSGGGGSDIQMTQSPSFLSASVGDRVTITCKASQNVADRVVWHQQKPGKAPKALIYSSSHRYKGVPSRFSGSGSGTEFTLTISSLQPEDFATYFCQQFKSYPLTFGQGTKLEIK", "values": [{"measurement": "Kd", "setting": "[1]", "value": 0.486, "unit": "nM"}, {"measurement": "Kd", "setting": "[2]", "value": 1, "unit": "nM"}]}
{"binder": "A-H.65 (scFv) scFv: QVQLVQSGAEVKKPGSSVKVSCKASGHDFKLTYIHWVRQAPGQGLEWMGRISAGSGNTKYNEKFKGRVTITADTSTSTAYMELSSLRSEDTAVYYCAVSYYSYDVLDYWGQGTTVTVSSGGGGSGGGGSGGGGSGGGGSDIQMTQSPSFLSASVGDRVTITCKASQNVGDRVVWHQQKPGKAPKALIYSSSHRYKGVPSRFSGSGSGTEFTLTISSLQPEDFATYFCQQFKSYPLTFGQGTKLEIK", "values": [{"measurement": "Kd", "setting": "[1]", "value": 0.396, "unit": "nM"}, {"measurement": "Kd", "setting": "[2]", "value": 0.725, "unit": "nM"}]}
{"binder": "A-H.66 (scFv) scFv: QVQLVQSGAEVKKPGSSVKVSCKASGHDFKLTYIHWVRQAPGQGLEWMGRIYAGSGNTKYNEKFKGRVTITADTSTSTAYMELSSLRSEDTAVYYCAVSYYSYDVLDYWGQGTTVTVSSGGGGSGGGGSGGGGSGGGGSDIQMTQSPSFLSASVGDRVTITCKASQNVGDRVVWHQQKPGKAPKALIYSSSHRYKGVPSRFSGSGSGTEFTLTISSLQPEDFATYFCQQFKSYPLTFGQGTKLEIK", "values": [{"measurement": "Kd", "setting": "[1]", "value": 0.338, "unit": "nM"}, {"measurement": "Kd", "setting": "[2]", "value": 2.2, "unit": "nM"}]}
